B1: Activated CDC42 kinase 1 (Homo sapiens), Q07912-2 (parent)
chain: MQPEEGTGWLLELLSEVQLQQYFLRLRDDLNVTRLSHFEYVKNEDLEKIGMGRPGQRRLWEAVKRRKALCKRKSWMSKVFSGKRLEAEFPPHHSQSTFRKTSPAPGGPAGEGPLQSLTCLIGEKDLRLLEKLGDGSFGVVRRGEWDAPSGKTVSVAVKCLKPDVLSQPEAMDDFIREVNAMHSLDHRNLIRLYGVVLTPPMKMVTELAPLGSLLDRLRKHQGHFLLGTLSRYAVQVAEGMGYLESKRFIHRDLAARNLLLATRDLVKIGDFGLMRALPQNDDHYVMQEHRKVPFAWCAPESLKTRTFSHASDTWMFGVTLWEMFTYGQEPWIGLNGSQILHKIDKEGERLPRPEDCPQDIYNVMVQCWAHKPEDRPTFVALRDFLLEAQPTDMRALQDFEEPDKLHIQMNDVITVIEGRAENYWWRGQNTRTLCVGPFPRNVVTSVAGLSAQDISQPLQNSFIHTGHGDSDPRHCWGFPDRIDECPFSAFSPGHPPAETCGQVLWTGRREACASDPRLHPVSSRTKGL
partner: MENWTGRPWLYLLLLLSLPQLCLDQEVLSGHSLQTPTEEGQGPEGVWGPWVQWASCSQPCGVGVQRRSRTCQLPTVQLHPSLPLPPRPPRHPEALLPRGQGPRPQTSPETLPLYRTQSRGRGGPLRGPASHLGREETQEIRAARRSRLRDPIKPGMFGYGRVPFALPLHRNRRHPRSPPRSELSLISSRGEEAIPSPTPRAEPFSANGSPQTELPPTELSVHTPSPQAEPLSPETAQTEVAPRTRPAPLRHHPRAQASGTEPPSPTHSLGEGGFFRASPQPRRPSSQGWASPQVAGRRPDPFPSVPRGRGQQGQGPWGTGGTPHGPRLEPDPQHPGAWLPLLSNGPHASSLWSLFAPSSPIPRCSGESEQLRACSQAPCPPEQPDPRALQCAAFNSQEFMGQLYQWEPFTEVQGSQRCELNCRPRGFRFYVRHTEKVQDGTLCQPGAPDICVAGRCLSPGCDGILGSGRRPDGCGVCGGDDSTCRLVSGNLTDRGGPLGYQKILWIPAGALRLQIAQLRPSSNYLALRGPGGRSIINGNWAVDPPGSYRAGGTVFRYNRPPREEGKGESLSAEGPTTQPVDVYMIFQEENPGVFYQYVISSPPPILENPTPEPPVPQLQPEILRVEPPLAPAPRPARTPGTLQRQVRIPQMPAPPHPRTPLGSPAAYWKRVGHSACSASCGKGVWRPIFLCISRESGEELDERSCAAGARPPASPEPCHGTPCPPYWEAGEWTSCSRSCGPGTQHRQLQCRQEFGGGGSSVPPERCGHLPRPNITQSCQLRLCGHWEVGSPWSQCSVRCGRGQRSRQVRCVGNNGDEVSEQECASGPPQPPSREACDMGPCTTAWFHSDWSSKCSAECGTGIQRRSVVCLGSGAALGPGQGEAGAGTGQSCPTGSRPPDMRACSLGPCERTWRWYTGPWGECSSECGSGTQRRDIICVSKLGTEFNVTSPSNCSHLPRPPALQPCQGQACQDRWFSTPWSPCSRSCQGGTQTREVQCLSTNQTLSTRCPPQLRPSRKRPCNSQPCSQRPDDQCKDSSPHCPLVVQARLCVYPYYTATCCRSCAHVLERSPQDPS
B2: LIM/homeobox protein Lhx4 (Homo sapiens), Q969G2 (parent)
chain: MMQSATVPAEGAVKGLPEMLGVPMQQIPQCAGCNQHILDKFILKVLDRHWHSSCLKCADCQMQLADRCFSRAGSVYCKEDFFKRFGTKCTACQQGIPPTQVVRKAQDFVYHLHCFACIICNRQLATGDEFYLMEDGRLVCKEDYETAKQNDDSEAGAKRPRTTITAKQLETLKNAYKNSPKPARHVREQLSSETGLDMRVVQVWFQNRRAKEKRLKKDAGRHRWGQFYKSVKRSRGSSKQEKESSAEDCGVSDSELSFREDQILSELGHTNRIYGNVGDVTGGQLMNGSFSMDGTGQSYQDLRDGSPYGIPQSPSSISSLPSHAPLLNGLDYTVDSNLGIIAHAGQGVSQTLRAMAGGPTSDISTGSSVGYPDFPTSPGSWLDEMDHPPF
partner: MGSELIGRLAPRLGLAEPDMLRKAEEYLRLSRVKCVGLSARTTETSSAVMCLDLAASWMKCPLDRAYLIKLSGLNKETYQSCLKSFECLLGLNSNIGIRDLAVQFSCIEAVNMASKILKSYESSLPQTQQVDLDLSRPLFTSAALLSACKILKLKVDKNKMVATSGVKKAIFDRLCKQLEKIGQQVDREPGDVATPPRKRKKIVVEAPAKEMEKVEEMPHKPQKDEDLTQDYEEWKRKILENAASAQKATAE
B3: Probable RNA-binding protein EIF1AD (Homo sapiens), Q8N9N8 (parent)
chain: MSQATKRKHVVKEVLGEHIVPSDQQQIVRVLRTPGNNLHEVETAQGQRFLVSMPSKYRKNIWIKRGDFLIVDPIEEGEKVKAEISFVLCKDHVRSLQKEGFWPEAFSEVAEKHNNRNRQTQPELPAEPQLSGEESSSEDDSDLFVNTNRRQYHESEEESEEEEAA
partner: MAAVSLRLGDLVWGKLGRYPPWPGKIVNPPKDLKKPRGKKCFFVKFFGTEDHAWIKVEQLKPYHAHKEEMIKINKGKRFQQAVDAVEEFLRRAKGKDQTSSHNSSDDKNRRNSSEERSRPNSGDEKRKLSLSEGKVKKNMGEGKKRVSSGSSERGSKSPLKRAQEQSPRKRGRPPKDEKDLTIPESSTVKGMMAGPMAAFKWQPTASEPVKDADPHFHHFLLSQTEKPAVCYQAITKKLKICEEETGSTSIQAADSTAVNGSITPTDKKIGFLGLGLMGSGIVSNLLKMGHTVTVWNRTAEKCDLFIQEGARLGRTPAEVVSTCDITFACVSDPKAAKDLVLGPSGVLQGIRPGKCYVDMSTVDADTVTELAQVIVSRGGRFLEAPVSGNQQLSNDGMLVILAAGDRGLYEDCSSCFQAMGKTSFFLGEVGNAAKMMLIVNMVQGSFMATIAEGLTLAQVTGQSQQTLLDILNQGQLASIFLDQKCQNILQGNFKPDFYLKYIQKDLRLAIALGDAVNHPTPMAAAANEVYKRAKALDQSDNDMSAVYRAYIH
B4: Four and a half LIM domains protein 3 (Homo sapiens), Q13643 (parent)
chain: MSESFDCAKCNESLYGRKYIQTDSGPYCVPCYDNTFANTCAECQQLIGHDSRELFYEDRHFHEGCFRCCRCQRSLADEPFTCQDSELLCNDCYCSAFSSQCSACGETVMPGSRKLEYGGQTWHEHCFLCSGCEQPLGSRSFVPDKGAHYCVPCYENKFAPRCARCSKTLTQGGVTYRDQPWHRECLVCTGCQTPLAGQQFTSRDEDPYCVACFGELFAPKCSSCKRPIVGLGGGKYVSFEDRHWHHNCFSCARCSTSLVGQGFVPDGDQVLCQGCSQAGP
partner: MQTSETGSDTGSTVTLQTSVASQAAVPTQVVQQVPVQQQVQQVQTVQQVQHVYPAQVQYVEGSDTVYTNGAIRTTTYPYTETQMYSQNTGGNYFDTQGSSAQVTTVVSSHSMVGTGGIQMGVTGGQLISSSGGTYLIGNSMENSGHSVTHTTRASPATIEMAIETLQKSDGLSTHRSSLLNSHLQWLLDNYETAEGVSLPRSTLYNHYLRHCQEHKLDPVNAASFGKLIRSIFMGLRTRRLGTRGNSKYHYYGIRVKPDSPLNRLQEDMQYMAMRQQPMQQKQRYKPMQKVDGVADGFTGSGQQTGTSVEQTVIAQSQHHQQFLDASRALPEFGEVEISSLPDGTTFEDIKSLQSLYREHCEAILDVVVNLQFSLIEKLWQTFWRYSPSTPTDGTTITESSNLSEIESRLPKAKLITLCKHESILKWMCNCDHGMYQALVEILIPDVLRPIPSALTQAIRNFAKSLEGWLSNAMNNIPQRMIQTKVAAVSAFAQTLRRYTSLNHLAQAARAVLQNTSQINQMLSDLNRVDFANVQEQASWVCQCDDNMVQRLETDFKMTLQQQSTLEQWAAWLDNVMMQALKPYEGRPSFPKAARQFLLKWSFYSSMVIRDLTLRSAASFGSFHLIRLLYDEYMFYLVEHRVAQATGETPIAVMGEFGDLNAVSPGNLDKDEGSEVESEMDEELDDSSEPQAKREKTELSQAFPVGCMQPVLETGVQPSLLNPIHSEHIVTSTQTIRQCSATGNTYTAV
B5: Keratin, type II cytoskeletal 2 epidermal (Homo sapiens), P35908 (parent)
chain: MSCQISCKSRGRGGGGGGFRGFSSGSAVVSGGSRRSTSSFSCLSRHGGGGGGFGGGGFGSRSLVGLGGTKSISISVAGGGGGFGAAGGFGGRGGGFGGGSSFGGGSGFSGGGFGGGGFGGGRFGGFGGPGGVGGLGGPGGFGPGGYPGGIHEVSVNQSLLQPLNVKVDPEIQNVKAQEREQIKTLNNKFASFIDKVRFLEQQNQVLQTKWELLQQMNVGTRPINLEPIFQGYIDSLKRYLDGLTAERTSQNSELNNMQDLVEDYKKKYEDEINKRTAAENDFVTLKKDVDNAYMIKVELQSKVDLLNQEIEFLKVLYDAEISQIHQSVTDTNVILSMDNSRNLDLDSIIAEVKAQYEEIAQRSKEEAEALYHSKYEELQVTVGRHGDSLKEIKIEISELNRVIQRLQGEIAHVKKQCKNVQDAIADAEQRGEHALKDARNKLNDLEEALQQAKEDLARLLRDYQELMNVKLALDVEIATYRKLLEGEECRMSGDLSSNVTVSVTSSTISSNVASKAAFGGSGGRGSSSGGGYSSGSSSYGSGGRQSGSRGGSGGGGSISGGGYGSGGGSGGRYGSGGGSKGGSISGGGYGSGGGKHSSGGGSRGGSSSGGGYGSGGGGSSSVKGSSGEAFGSSVTFSFR

Variants of: B1
Conditions: with atl4_human ADAMTSL4, Q6UY14
With R34L the “effect of a mutation on the interaction” value was “with no effect”.

Variants of: B2
Conditions: with orc6_human ORC6, Q9Y5N6
For N328S, the “effect of a mutation on the interaction” value was “with no effect”.

Variants of: B3
Conditions: with glyr1_human GLYR1, Q49A26
In the case of R48C, the “effect of a mutation on the interaction” value is reported as “with no effect”.

Variants of: B4
Conditions: with rfx3_human RFX3, P48380
With R226H the “effect of a mutation on the interaction” value was “with no effect”.

Variants of: B5
Conditions: with KRT19, P08727
Sequence of KRT19, P08727 (P08727 whole entry): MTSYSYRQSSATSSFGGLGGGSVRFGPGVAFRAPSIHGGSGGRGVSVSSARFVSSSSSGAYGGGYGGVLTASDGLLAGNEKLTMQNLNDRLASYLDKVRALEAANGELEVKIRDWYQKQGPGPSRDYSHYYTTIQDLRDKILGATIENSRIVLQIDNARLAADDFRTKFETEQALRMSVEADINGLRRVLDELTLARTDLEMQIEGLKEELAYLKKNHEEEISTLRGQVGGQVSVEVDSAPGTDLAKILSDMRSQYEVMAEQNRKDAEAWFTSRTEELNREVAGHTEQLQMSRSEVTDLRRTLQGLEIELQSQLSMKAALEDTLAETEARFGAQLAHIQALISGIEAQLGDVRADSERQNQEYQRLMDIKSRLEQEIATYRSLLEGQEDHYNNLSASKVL
With A517G the “effect of a mutation on the interaction” value was “with no effect”.

Reference: IntAct's records for PubMed 31515488
